Data taken from PMC10790780.

How the values were obtained:
[1] = test system: Rho-His6 (transcription termination factor Rho) (Acinetobacter baumannii AB5075); experiment: EMSA; conditions: LightShift chemiluminescent RNA EMSA kit components, 20 uL, 1 h at room temperature; 5% acrylamide TBE gel, 0.5x TBE, 100 V 120 min at 4 C; salt and pH not …
[2] = target: T1, Rho-His6 (transcription termination factor Rho) (Acinetobacter baumannii AB5075) (UniProt A0ABX6CC36); experiment: competition
[3] = target: T1, Rho-His6 (transcription termination factor Rho) (Acinetobacter baumannii AB5075); experiment: EMSA

| Substance | Kd [1] [nM] | also measured |
| --- | --- | --- |
| ABUW_1645 mRNA leader | 20 | – |
| ABUW_1959 mRNA leader | 29 | – |
| GGGCUUUGCCUGCUAGCCACAUUGCUAGCGGGUUUUAGCAGACCCUAUUUAAACAAAGACGAUAGACAGAACCUAGUUUUGUGUGUCGUGAACUCGUUCGCCCCCUUUUUCUCUAUGGUAGGGCGGAAGGGGGACACCUUCGGGUGUGCUGGUUUCUUUGUUUUCCAGUCUGCUAACCCUCUUUCGUCCUGCCAGUACUGAUC [ABUW_1645 mRNA leader, unlabeled competitor] | – | binding [2]: binds |
| GGGCUUUGCCUGCUAGCCACAUUGCUAGCGGGUUUUAGCAGACCCUAUUUAAACAAAGACGAUAGACAGAACCUAGUUUUGUGUGUCGUGAACUCGUUCGCCCCCUUUUUCUCUAUGGUAGGGCGGAAGGGGGACACCUUCGGGUGUGCUGGUUUCUUUGUUUUCCAGUCUGCUAACCCUCUUUCGUCCUGCCAGUACUGAUC [ABUW_1645 mRNA leader] | – | Kd [3]: 20 nM |
